Molecular target: T1, PPE68 (Mycobacterium tuberculosis, UniProt P9WHW9 1-368)
T1 construct: also called recombinant PPE68
T1 sequence: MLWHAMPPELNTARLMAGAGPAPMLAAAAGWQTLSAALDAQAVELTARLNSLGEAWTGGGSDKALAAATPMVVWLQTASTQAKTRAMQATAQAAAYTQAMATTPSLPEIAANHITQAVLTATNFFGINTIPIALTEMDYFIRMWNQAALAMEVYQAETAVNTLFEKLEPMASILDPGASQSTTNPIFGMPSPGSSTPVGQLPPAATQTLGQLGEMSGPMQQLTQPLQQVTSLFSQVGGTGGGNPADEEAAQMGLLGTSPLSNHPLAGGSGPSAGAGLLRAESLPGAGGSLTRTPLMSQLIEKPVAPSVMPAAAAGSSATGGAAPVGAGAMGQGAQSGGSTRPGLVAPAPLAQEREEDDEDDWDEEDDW
Test: other fluorescence titration; intrinsic fluorescence of the PPE protein (10 μg) with the tryptophan-free PE protein added (10 and 30 μg); excitation 280 nm, emission 300-340 nm, 25 ± 0.1 °C
Settings: both partners purified

B1: PE35 (natural protein)
chain: MEKMSHDPIAADIGTQVSDNALHGVTAGSTALTSVTGLVPAGADEVSAQAATAFTSEGIQLLASNASAQDQLHRAGEAVQDVARTYSQIDDGAAGVFAE
notes: also called recombinant PE35
- binding result: binds
